This assay concerns the target human CX3CR1 (human) (UniProt P49238).

human CX3CR1 (human), sequence (P49238 whole entry): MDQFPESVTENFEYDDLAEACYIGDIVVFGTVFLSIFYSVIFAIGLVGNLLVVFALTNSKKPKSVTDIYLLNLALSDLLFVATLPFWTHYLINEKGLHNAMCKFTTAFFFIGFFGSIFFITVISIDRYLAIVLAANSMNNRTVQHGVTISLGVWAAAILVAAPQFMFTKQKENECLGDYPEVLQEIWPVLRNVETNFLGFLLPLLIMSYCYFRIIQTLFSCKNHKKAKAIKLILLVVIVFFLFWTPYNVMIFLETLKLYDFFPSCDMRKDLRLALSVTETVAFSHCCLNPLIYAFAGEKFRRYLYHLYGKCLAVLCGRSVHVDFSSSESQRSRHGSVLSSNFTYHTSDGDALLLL

B1: mouse fractalkine (ligand)
chain: QHLGMTKCEIMCDKMTSRIPVALLIRYQLNQESCGKRAIVLETTQHRRFCADPKEKWVQDAMKHLDHQAAALTKNGGKFEKRVDNVTPGITLATRGLSPSALTKPESATLEDLALELTTISQEARGTMGTSQEPPAAVTGSSLSTSEAQDAGLTAKPQSIGSFEAADISTTVWPSPAVYQSGSSSWAEEKATESPSTTAPSPQVSTTSPSTPEENVGSEGQPPWVQGQDLSPEKSLGSEEINPVHTDNFQERGPGNTVHPSVAPISSEETPSPELVASGSQAPKIEEPIHATADPQKLSVLITPVPDTQAATRRQAVGLLAFLGLLFCLGVAMFAYQSLQGCPRKMAGEMVEGLRYVPRSCGSNSYVLVPV
With B1, the EC50 in the calcium flux assay was determined as 4.8 nM.

The values above are taken from PMC6973309.
